1 substance from US20180037654A1 can be followed below.

For assay [1], the target named is human CTLA-4 (Y166G and Y183G) expressed on CHO-K1.hCTLA-4 cells (human) (UniProt P16410). The experiment in a line: CELISA on CHO-K1.hCTLA-4 cells (Example 6).
Assay [2] has the same target. Briefly: CELISA, blockade of biotinylated hCD80/Fc binding to CHO-K1.hCTLA-4 cells (Example 6).
For assay [3] the target is unchanged. Briefly: CELISA, blockade of biotinylated hCD86/Fc binding to CHO-K1.hCTLA-4 cells (Example 6).
Another assay has as its target human CTLA-4 (human) (UniProt P16410). The experiment in a line: CELISA on CHO-K1 cells transiently transfected with human CTLA-4, panel Human.
The next assay addresses rhCTLA-4/Fc/6His (human). The experiment in a line: BLI (Octet RED96), antibody amine-coupled to biosensor, rhCTLA-4/Fc 2.5-40 nM, 1:1 global fit.
The target in assay [4] is Mou-Hum-CTLA-4 (mouse/human chimera). Briefly: CELISA on CHO-K1 cells transiently transfected with Mou-Hum-CTLA-4, panel Mouse/Human.
Mou-Hum-CTLA-4 (mouse/human chimera), sequence (chain, as listed by the source mutant limits assumed): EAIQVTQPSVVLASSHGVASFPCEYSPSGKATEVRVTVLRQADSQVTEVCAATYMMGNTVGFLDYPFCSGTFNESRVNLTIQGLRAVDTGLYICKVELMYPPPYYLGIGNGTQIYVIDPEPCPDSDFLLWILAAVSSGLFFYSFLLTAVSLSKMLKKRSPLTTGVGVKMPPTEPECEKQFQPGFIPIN

As a reminder, the EC50 is the concentration needed to bring the measured effect to its halfway point. What is called IC50 is the concentration needed to halve the response being measured. The low end stands for greater potency in that assay, the high end for weaker potency in that assay. A word on the EC50 (read off the curve): it is the concentration needed to bring the measured effect to its halfway point. A lower EC50 (read off the curve) goes with higher potency in that assay. What is called Kd is the constant that tells how readily two partners part at equilibrium. Read a low Kd as higher affinity.

human CTLA-4 (Y166G and Y183G) expressed on CHO-K1.hCTLA-4 cells (human), sequence (P16410 36-223 Y201G/Y218G limits assumed): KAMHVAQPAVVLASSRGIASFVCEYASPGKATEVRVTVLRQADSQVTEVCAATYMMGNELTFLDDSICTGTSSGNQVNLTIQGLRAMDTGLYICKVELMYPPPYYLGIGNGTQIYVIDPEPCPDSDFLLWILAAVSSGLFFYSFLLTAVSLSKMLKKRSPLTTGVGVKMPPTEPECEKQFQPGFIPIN
CP-675,206 (antibody), sequence (VH): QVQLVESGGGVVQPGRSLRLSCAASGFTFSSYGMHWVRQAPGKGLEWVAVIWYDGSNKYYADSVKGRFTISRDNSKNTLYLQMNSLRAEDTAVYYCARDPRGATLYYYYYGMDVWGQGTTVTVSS
CP-675,206 (antibody), sequence (VL): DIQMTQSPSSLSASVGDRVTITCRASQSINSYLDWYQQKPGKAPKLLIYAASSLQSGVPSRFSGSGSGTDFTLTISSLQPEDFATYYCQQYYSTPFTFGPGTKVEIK
human CTLA-4 (human), sequence (P16410 36-223 limits assumed): as the sequence (P16410 36-223 Y201G/Y218G limits assumed) above, with G166Y, G183Y counted along it
rhCTLA-4/Fc/6His (human), sequence (chain, as listed by the source limits assumed): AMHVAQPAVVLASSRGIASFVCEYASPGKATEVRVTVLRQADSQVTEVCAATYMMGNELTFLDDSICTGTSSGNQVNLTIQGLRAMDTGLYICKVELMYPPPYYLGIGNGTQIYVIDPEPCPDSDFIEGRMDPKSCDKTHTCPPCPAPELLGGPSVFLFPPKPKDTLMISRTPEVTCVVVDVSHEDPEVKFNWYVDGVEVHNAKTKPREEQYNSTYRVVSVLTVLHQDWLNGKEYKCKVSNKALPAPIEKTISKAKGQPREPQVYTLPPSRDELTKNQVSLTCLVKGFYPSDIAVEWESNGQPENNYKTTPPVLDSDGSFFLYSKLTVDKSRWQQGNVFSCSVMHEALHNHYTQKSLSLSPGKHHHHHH

CP-675,206 (antibody) had an EC50 in assay [1] of 0.037 nM. For the same substance, the IC50 in assay [2] was 1.75 nM; in assay [3], 1.69 nM. Further, the EC50 (read off the curve) in the assay with human CTLA-4 (human) was found to be 0.05 nM; in assay [4] it was 0.04 nM. This substance also yielded a Kd in the assay with rhCTLA-4/Fc/6His (human) of 3.4 nM.
